# Test results published in PMC6599478 (Mucosal immunology, 2019).
# Target: recombinant full length Tenascin-C, large isoform (TNC-L) (human, UniProt P24821 23-2201)
# Test: ELISA
# Chain of recombinant full length Tenascin-C, large isoform (TNC-L) (P24821 23-2201): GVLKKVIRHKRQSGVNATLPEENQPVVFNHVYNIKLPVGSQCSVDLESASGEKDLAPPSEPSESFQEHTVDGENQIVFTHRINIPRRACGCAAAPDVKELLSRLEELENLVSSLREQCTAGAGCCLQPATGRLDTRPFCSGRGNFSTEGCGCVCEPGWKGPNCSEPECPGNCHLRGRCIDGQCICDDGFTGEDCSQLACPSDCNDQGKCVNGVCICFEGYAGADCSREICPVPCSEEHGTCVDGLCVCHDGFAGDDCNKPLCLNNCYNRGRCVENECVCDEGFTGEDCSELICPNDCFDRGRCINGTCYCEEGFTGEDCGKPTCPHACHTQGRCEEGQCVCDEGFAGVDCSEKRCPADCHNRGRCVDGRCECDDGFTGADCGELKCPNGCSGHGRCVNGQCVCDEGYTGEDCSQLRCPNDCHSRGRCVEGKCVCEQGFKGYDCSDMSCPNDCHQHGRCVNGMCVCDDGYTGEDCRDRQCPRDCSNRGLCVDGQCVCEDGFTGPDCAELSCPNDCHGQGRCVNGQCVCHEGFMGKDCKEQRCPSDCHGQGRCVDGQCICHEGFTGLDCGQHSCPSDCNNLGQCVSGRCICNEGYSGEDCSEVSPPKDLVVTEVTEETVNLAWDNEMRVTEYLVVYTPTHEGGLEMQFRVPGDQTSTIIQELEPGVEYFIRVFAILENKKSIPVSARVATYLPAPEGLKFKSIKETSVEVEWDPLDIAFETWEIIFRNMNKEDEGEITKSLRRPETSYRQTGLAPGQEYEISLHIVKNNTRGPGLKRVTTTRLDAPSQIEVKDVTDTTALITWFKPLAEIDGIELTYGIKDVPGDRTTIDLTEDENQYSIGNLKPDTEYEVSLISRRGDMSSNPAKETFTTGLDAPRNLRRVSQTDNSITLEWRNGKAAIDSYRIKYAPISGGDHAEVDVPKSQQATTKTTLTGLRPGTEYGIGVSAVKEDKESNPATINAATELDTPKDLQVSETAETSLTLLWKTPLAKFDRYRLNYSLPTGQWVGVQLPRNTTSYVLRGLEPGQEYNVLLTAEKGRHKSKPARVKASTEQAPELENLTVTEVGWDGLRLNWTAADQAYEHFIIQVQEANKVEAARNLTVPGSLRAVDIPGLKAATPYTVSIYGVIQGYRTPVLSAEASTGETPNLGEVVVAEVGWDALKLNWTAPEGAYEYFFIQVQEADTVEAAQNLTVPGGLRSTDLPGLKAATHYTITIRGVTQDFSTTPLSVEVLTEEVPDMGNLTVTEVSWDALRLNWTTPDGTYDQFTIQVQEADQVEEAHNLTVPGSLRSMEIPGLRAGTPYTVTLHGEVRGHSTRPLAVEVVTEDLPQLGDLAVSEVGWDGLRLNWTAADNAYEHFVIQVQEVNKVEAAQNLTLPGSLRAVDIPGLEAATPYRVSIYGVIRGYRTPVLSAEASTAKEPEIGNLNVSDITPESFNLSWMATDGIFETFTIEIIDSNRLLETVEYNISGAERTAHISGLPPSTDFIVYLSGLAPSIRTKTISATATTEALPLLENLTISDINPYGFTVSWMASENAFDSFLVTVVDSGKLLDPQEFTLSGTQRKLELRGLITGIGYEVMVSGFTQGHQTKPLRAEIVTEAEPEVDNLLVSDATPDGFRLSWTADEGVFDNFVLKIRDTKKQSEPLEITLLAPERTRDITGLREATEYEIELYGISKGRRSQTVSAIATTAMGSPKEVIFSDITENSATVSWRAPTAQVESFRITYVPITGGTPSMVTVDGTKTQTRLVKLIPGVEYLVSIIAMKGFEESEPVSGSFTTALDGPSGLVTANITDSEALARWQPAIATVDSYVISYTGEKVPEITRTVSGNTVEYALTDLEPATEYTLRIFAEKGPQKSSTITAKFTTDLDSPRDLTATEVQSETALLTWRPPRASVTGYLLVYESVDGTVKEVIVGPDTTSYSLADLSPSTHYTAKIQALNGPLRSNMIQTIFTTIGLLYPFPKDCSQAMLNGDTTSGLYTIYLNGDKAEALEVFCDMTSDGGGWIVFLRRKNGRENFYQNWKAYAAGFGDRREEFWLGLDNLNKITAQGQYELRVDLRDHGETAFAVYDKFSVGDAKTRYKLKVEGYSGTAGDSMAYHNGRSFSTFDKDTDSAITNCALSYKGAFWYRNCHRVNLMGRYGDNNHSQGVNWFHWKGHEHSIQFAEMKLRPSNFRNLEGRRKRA
row,Binder,binding result
1,"TRPNYNKRKRIHIGPGRAFYTTKNIIGTIRQAH [MN V3 complete V3 loop peptide (33 amino acid linear peptide, wild type)]",binds
2,TRPNYNKRKRIHIGPGRAFYTTKNIIGAARQAH [MNV3 326/327 Mutant peptide (T326A/I327A)],binds
3,TRPNYNKRKRIHIGPGRAFYTTAAIIGAARQAH [MNV3 Quad Mutant peptide (K321A/N322A/T326A/I327A)],binds
4,TRPNYNKRKRIHIGPGRAFYTTAAIIGTIRQAH [MNV3 321/322 Mutant peptide (K321A/N322A)],binds
